For 1 substance, stoichiometry N results are on record in article PMC11132685.

The target in this test is tetrabrachion-stabilised recombinant N2 NA (NACHO) of A/MORAMANGA/1907/2017 (not stated | influenza A virus (H3N2) A/MORAMANGA/1907/2017). The test can be described thus: SEC-MALS; purified NACHOs; oligomeric state; conditions not given. (In general: Size exclusion chromatography separates by hydrodynamic size, large species first.)

Consider “tetrabrachion-stabilised recombinant N2 NA (NACHO) of A/MORAMANGA/1907/2017 (enzyme)”, for which the stoichiometry N worked out at 4.

Usually stoichiometry N stands for a count of units in the complex or per binding partner.
